Test results taken from US20240287172A1 (SCIRHOM, published 2024).

B1: antibody 48 (antibody, V domains shown)
VH: QVQLQQSGTELVRPGTSVKVSCKASGYAFTNYLIEWVKQRPGQGLEWIGVINPGSGFTKYNEKFKGKATLTADKSSSTVYMHLSSLTSEDSAVYFCARGLYRAMDYWGQGTSVTVSS
VL: DIQMTQSPASQSASLGESVTITCLASQTIATWLAWYQQKPGKSPQLLIYGATTLADGVPSRFSGGGSGTKFSFKISSLQAEDFVSYYCQQLYSTPYTFGGGTKLEIK
notes: mouse IgG, kappa light chain; also called clone #48; purified antibody 48
B2: antibody 50 (antibody, V domains shown)
VH: QVQLQQSGAELVRPGASVKVSCKASGYAFSNYLIEWVKQRPGQGLEWIGVINPGSGFTKYNEKFKGKATLTADKSSSTAYMQLSSLTSEDSAVYFCARGLYRAMDYWGQGTSVTVSS
VL: DIQMTQSPASQSASLGESVTITCLASQTIGTWLAWYQQKPGKSPQLLIYAAASLADGVPSRFSGGGSGTKFSFKISSLQAEDFVNYYCQQIYSTPYTFGGGTKLEIK
notes: mouse IgG, kappa light chain; also called clone #50; purified antibody 50

Tests used:
hiR2-FL-H590A-T7 = molecular target: T1, hiR2-FL-H590A-T7 (human, UniProt Q6PJF5 1-856); test: FACS on MEF-DKO cells expressing the variant, 3 µg/ml antibody
T1 sequence: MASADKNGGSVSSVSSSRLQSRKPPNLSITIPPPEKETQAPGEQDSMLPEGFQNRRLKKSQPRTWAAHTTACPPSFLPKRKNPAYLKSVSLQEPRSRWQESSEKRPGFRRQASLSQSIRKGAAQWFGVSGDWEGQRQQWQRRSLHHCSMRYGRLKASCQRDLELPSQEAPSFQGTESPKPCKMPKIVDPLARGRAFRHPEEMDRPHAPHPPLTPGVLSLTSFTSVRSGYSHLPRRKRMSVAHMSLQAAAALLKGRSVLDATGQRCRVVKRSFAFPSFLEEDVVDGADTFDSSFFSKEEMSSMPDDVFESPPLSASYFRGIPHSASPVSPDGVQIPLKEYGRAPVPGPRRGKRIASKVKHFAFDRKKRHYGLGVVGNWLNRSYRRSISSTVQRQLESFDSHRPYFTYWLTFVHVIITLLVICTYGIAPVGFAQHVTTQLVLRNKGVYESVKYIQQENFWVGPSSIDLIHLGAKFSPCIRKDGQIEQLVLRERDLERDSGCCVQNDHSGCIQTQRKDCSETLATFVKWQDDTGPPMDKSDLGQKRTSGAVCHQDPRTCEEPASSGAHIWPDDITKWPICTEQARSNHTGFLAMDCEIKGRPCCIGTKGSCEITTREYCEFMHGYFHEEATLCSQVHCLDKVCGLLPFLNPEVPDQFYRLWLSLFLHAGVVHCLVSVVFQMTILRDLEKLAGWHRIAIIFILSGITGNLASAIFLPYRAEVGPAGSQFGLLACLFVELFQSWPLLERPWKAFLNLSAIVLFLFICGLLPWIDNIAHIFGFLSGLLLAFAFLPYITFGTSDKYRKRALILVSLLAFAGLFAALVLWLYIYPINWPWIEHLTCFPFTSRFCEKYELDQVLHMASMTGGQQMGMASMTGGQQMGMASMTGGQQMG
Summary of the method: (§1)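 Primary stain: antibody 3 μg/ml, 1 h on ice; controls buffer alone. Secondary: PE anti-mouse IgG F(ab′)2 1:100, 1 h on ice, light-protected. Washes at 4° C; read by flow cytometry.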

hiR2-FL-C593A-T7 = molecular target: T2, hiR2-FL-C593A-T7 (human, UniProt Q6PJF5 1-856); test: as above
T2 construct: reduced surface expression reported
T2 sequence: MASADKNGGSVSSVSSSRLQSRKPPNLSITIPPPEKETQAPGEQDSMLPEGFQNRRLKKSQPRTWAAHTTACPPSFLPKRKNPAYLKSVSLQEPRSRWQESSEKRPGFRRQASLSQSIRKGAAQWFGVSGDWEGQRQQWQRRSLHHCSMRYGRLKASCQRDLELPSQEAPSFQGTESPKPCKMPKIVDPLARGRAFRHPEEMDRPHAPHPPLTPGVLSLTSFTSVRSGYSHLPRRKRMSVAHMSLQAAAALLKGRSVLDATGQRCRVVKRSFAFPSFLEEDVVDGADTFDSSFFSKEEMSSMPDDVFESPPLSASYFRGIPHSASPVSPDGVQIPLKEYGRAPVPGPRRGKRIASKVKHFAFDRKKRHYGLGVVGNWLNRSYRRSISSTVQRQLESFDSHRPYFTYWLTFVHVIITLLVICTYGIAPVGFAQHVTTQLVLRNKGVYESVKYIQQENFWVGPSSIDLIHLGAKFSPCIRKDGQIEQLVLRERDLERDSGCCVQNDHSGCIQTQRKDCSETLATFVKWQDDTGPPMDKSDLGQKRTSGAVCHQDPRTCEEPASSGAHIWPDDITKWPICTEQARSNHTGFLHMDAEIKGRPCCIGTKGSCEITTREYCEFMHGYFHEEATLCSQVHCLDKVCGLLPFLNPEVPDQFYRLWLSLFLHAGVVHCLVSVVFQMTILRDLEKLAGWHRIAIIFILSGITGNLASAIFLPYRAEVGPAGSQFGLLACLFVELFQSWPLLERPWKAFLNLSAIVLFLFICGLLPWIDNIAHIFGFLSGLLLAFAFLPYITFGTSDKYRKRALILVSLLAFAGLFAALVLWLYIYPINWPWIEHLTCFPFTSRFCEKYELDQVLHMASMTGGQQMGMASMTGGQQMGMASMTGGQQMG
Summary of the method: as §1

Binder	loss of binding vs wild type (hiR2-FL-H590A-T7)	loss of binding vs wild type (hiR2-FL-C593A-T7)
B1	≥ 30%	–
B2	–	≥ 30%
